From paper PMC12018839 come the findings set out here.

This data set addresses T1, GST-PIL15 (Oryza sativa (rice), UniProt Q0JNI9 1-637).
T1 sequence: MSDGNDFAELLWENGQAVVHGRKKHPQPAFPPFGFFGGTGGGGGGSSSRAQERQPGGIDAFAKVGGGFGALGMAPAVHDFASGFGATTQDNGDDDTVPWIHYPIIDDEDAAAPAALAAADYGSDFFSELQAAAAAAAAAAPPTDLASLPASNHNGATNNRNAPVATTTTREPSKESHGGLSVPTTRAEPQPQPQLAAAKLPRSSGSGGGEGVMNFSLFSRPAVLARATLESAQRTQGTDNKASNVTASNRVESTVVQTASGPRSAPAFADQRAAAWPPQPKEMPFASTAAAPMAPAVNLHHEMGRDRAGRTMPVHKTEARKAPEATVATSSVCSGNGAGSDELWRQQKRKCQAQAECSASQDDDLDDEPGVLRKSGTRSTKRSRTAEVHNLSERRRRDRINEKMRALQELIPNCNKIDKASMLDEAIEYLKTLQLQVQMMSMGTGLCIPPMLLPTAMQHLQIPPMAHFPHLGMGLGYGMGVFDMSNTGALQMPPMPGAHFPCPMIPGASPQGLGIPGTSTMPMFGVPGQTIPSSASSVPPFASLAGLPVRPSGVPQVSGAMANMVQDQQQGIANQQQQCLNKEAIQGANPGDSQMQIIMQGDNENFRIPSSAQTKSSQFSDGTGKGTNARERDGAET
Briefly: EMSA. In general terms: A gel shift assay detects complexes by their altered migration in electrophoresis.

B1: PIL15 EMSA probe (AMT1;2 promoter PBE-box) (dsDNA)
DNA 1: AGGATTTCATGTGTTTTGGT
DNA 2: ACCAAAACACATGAAATCCT
As to B1, the binding result is on record as “binds”.
